Where “and” joins values, the source holds several entries; their conditions need not be identical. Identical values can stand only once.

Assay [1] deals with SARS-CoV-2 spike N439K variant (pseudovirus RVP-703) (SARS-CoV-2) (UniProt P0DTC2). In words: cell-based or functional assay.
Assay [2] has as its target SARS-CoV-2 spike South African Δ3 B.1.351 variant (pseudovirus RVP-724) (SARS-CoV-2) (UniProt P0DTC2). In words: cell-based or functional assay.

In the case of REGN10987 (antibody), the EC50 (pM) Neutralization, pseudovirus is 2260 pM and 2220 pM in assay [1]; 2.48 pM and 2.37 pM in assay [2].

Values taken from patent US20250179183A1.
